Target: P8 carrier peptide (Influenza H5N1)
Experiment: AUC

P8 carrier peptide
percent of the peptide as trimers: 70%
stoichiometry N: 3
